The values that follow are results of earlier work, collected in publication PMC5800599.

This data set deals with FcγRIIIa/CD16A (Homo sapiens) (UniProt P08637).
Sequence of FcγRIIIa/CD16A (Homo sapiens) (P08637 17-254): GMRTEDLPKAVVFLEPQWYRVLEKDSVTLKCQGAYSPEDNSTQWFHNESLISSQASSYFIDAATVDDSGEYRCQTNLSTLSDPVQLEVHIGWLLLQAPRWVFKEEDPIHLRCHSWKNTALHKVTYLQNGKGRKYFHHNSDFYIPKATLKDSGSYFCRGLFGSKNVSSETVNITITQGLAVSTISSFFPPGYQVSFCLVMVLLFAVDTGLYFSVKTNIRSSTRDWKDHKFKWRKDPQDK

Take hIgG1 Fc Fc (from UniProt P01857): the equilibrium dissociation constant (Kd) (usually the free concentration of one partner at which half of the binding sites on the other are occupied at equilibrium, for simple one-to-one binding) was 550 nM.
